Results on one molecule are retold here after patent US20250066499A1 (SUNSHINE GUOJIAN PHARMACEUTICAL SHANGHAI, published 2025).

One experiment addresses T1, CD73-ND-his (human, UniProt P21589 27-317).
T1 construct: Biotinylated and captured on streptavidin in the ELISA
T1 sequence: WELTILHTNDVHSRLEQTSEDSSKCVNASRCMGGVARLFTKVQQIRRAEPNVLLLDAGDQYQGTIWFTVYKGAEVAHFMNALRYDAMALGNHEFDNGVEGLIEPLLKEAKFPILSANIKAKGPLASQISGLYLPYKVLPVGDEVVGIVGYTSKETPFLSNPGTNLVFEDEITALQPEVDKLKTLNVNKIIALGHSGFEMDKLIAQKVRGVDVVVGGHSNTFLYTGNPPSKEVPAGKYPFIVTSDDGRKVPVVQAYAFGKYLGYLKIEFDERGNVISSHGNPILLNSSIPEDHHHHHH
The experiment is described as follows: ELISA; decline multiple of Top against CD73-ND. As for the experimental part:
(§1) The ELISA plates were coated with SA protein diluted to 1.5 μg/mL in coating buffer (50 mM carbonate coating buffer, pH 9.6) and incubated overnight at 4° C. The supernatant was discarded, and the plates were washed three times with PBST. Then, 5% skimmed milk powder prepared with PBS was added for blocking and the plates were incubated for 2 h at 37° C. After washing the plates once with PBST, CD73-biotin protein (prepared by biotinylating CD73-His protein according to the EZ-Link NHS-Biotin Reagent instructions) was diluted to 0.5 μg/mL and added at 100 μL/well for incubation at room temperature for 1 h. The plates were washed three times with PBST, and the prepared murine-derived monoclonal antibodies against human CD73 were serially diluted with 1% BSA buffer prepared with PBST and added to the ELISA plates at 100 μl/well. The plates were incubated at 37° C. for 1 h. After washing the plates three times with PBST, HRP-labeled goat anti-mouse IgG secondary antibody was added and the plates were incubated for 30 min at 37° C. After washing the plates three times with PBST, the residual droplets were patted dry on absorbent paper as much as possible. Then, 100 μl of TMB color developing solution was added to each well, and the plates were incubated in the dark at room temperature for 5 min for color development. Subsequently, 50 μl of 2M H₂SO₄ stop solution was added to each well to terminate the substrate reaction. The OD values were read at 450 nm using a multimode microplate reader to analyze the binding ability of the tested antibodies to the target antigen human CD73-His.
(§2) Referring to the experimental method in Example 3, the affinity of 48A11-HuV33 for various mutant proteins of CD73-ND was determined. The SA protein was diluted to 1 μg/mL for coating the ELISA plates, and the biotinylated CD73 protein (CD73-biotin) was used at a concentration of 0.1 μg/mL.
A general note: In an ELISA, binding on a coated surface is turned into a signal by an enzyme label.

A further experiment has as its target T2, CD73-ND-V186A (human, UniProt P21589 27-317).
T2 construct: Alanine mutant of CD73-ND
T2 sequence: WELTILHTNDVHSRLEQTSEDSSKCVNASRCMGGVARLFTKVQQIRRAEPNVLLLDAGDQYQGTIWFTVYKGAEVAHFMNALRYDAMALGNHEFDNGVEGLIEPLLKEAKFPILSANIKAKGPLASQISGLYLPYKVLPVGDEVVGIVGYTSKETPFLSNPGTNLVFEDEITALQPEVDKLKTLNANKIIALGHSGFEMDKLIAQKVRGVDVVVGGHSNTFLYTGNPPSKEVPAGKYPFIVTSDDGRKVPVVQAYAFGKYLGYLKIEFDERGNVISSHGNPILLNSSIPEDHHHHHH
As to the kind of experiment: ELISA; decline multiple of Top against CD73-ND. As to the method: as §1, §2

For a further experiment, the target named is T3, CD73-ND-N187A (human, UniProt P21589 27-317).
T3 construct: Alanine mutant of CD73-ND
T3 sequence: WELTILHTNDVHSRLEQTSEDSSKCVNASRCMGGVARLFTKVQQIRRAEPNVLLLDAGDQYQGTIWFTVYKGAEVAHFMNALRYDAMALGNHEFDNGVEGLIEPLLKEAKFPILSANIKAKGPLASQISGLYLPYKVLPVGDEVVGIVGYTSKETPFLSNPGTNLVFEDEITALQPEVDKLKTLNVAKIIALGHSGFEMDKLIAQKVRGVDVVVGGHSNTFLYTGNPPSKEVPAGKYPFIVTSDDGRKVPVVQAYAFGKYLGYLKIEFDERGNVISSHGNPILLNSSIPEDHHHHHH
As to the kind of experiment: ELISA; decline multiple of Top against CD73-ND. As for the experimental part:
as §1, §2

In the next experiment the target is T4, CD73-ND-P134A (human, UniProt P21589 27-317).
T4 construct: Alanine mutant of CD73-ND
T4 sequence: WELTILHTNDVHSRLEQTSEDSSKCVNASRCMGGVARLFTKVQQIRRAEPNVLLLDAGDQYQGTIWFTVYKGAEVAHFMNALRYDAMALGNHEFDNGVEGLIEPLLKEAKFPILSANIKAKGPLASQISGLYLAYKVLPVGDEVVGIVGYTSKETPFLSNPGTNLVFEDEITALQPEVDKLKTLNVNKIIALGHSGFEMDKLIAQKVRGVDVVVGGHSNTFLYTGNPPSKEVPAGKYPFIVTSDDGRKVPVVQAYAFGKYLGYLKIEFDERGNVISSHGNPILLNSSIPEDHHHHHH
The experiment is described as follows: ELISA, biotinylated antigen on streptavidin plate. As for the experimental part:
as §1, §2

The target of the next experiment is T5, CD73-ND-V137A (human, UniProt P21589 27-317).
T5 construct: Alanine mutant of CD73-ND
T5 sequence: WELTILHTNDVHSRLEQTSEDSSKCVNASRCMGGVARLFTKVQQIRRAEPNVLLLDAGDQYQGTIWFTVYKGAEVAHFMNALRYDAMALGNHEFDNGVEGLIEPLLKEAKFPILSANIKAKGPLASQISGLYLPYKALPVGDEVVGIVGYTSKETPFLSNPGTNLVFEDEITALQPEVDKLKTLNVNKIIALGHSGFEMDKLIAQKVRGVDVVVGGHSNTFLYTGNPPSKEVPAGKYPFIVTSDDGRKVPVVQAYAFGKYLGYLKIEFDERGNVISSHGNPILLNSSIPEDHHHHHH
As to the kind of experiment: ELISA, biotinylated antigen on streptavidin plate. As to the method:
as §1, §2

A further experiment addresses T6, CD73-ND-K180A (human, UniProt P21589 27-317).
T6 construct: Alanine mutant of CD73-ND
T6 sequence: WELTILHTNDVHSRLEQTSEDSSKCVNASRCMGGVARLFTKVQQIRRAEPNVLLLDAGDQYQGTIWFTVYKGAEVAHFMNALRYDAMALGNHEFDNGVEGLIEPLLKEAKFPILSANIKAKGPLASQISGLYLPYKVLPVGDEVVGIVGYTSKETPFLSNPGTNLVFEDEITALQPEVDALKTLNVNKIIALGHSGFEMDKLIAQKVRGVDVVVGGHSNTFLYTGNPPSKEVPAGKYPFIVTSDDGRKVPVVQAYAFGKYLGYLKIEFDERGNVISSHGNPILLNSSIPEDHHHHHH
The experiment is described as follows: ELISA, biotinylated antigen on streptavidin plate. As for the experimental part:
as §1, §2

B1: 48A11-HuV33 (antibody, human IgG4, V domains shown)
VH: QVQLVQSGAEVKKPGASVKVSCKASGYTFTSYWMHWVRQAPGQGLEWIGEINPSIGRTNYNEKFKSRVTLTRDTSTSTAYMELSSLRSEDTAVYYCARRVYGTMDYWGQGTLVTVSS
VL: DIQMTQSPSSLSASVGDRVTITCKASQDINSYLSWFQQKPGKSPKLLIYRANIWVDGVPSRFSGSGSGQDYTFTISSLQPEDIATYYCLQYDELYTFGQGTKVEIK
notes: Humanized
As for B1, the “Ratio(Top)” value with CD73-ND-his turned out to be 1 fold; in the experiment with CD73-ND-V186A it was 1.2 fold; in the experiment with CD73-ND-N187A, 1.1 fold. Also, the EC50 with CD73-ND-P134A came to 0.205 nM; in the experiment with CD73-ND-V137A, 0.891 nM; with CD73-ND-K180A, 0.321 nM.

By EC50 is commonly meant the midpoint of the concentration-response curve. A higher EC50 goes with lower potency in that assay.
